Read-outs that look alike come from different tables or passages of the source.
Key:
human full-length VWF [1] = biological target: T1, human full-length VWF (human, UniProt P04275 764-2813); experiment: SPR, Biacore T200, antibody captured on Protein A, full-length VWF as analyte, single-cycle kinetics
Description: (§1) Antibodies were captured on Protein A sensor chip. The system was purged using running buffer (10 mM HEPES pH 7.4, 300 mM NaCl, 3 mM EDTA, 0.05% P20) and a series S Protein A chip was docked in the Biacore T200. The surface was conditioned with 10 mM glycine-HCl pH 1.5 regeneration solution (3 injections). Each antibody was diluted to ˜0.8 μg/ml in running buffer to capture ˜350 RU on flow cells 2, 3 and 4 (flow cell 1 used as in-line reference cell). Single-cycle kinetic analysis of human full-length VWF binding to antibodies was performed using the following parameters:

human full-length VWF [2] = biological target: T1, human full-length VWF; experiment: as above; remark: listed apart in the source
Description: as §1

human full-length VWF [3] = biological target: T1, human full-length VWF; experiment: SPR Biacore T200, antibody captured on Protein A chip, full-length VWF as analyte, single-cycle kinetics
Description: as §1

human full-length VWF [4] = biological target: T1, human full-length VWF; experiment: SPR, Biacore T200, antibody captured on Protein A, full-length VWF as analyte, single-cycle kinetics; remark: listed apart in the source
Description: as §1

B1: 1-G5_H2_VL-par (antibody, human IgG1, kappa, V domains shown)
VH: QQLVESGGGVVQPGRSLRLSCAASGFSLSSYDMTWVRQAPGKGLEWIGSIHATGITFYANWAKGRFTTSKDSNTVYLQMNSLRAEDTATYFCARGLVDLNMWGQGTLVTVSS
VL: DPVMTQTASSVSAAVGGTVTINCQASQSVYNNNYLSWYQQKPGQPPKLLIYDASTLASGVPSRFSGNGSGTQFTLTISGVQCDDAATYYCQGSYYSGGWDTAFGGGTKVVVKT
notes: also called 1-G5_H2 (hIgG1)
Kd (human full-length VWF [1]): 14.4 pM
koff (human full-length VWF [1]): 3.78e-07 s⁻¹
kon (human full-length VWF [1]): 26200 M⁻¹ s⁻¹

B2: 1-G5_H1_VL-par (antibody, human IgG1, kappa, V domains shown)
VH: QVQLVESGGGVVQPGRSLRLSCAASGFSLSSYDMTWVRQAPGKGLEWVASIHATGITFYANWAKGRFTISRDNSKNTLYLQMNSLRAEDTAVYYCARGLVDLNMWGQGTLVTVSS
VL: DPVMTQTASSVSAAVGGTVTINCQASQSVYNNNYLSWYQQKPGQPPKLLIYDASTLASGVPSRFSGNGSGTQFTLTISGVQCDDAATYYCQGSYYSGGWDTAFGGGTKVVVKT
notes: also called 1-G5_H1 (hIgG1)
Kd (human full-length VWF [1]): 6.77 pM
koff (human full-length VWF [1]): 1.66e-07 s⁻¹
kon (human full-length VWF [1]): 24600 M⁻¹ s⁻¹

B3: 1-G5_H0_VL-par rep (antibody, human IgG1, kappa, V domains shown)
VH: QVQLVESGGGVVQPGRSLRLSCAASGFTFSSYDMTWVRQAPGKGLEWVASIHATGITFYANWAKGRFTISRDNSKNTLYLQMNSLRAEDTAVYYCARGLVDLNMWGQGTLVTVSS
VL: DPVMTQTASSVSAAVGGTVTINCQASQSVYNNNYLSWYQQKPGQPPKLLIYDASTLASGVPSRFSGNGSGTQFTLTISGVQCDDAATYYCQGSYYSGGWDTAFGGGTKVVVKT
notes: also called 1-G5_H0 (hIgG1)
Kd (human full-length VWF [1]): 8.52 pM
koff (human full-length VWF [1]): 7.2e-07 s⁻¹
kon (human full-length VWF [1]): 84500 M⁻¹ s⁻¹

B4: 4-H3_H6_L0 (antibody, human IgG1, kappa)
heavy: not shown
light: DIQMTQSPSSLSASVGDRVTITCLASEDIASGISWYQQKPGKAPKLLIYGASNLESGVPSRFSGSGSGTDFTLTISSLQPEDFATYYCLGGYSFSSNGLTFGGGTKVEIKTVAAPSVFIFPPSDEQLKSGTASVVCLLNNFYPREAKVQWKVDNALQSGNSQESVTEQDSKDSTYSLSSTLTLSKADYEKHKVYACEVTHQGLSSPVTKSFNRGEC
notes: humanised, human IgG1 kappa
Kd (human full-length VWF [2]): 0.649 pM
koff (human full-length VWF [2]): 2.67e-08 s⁻¹
kon (human full-length VWF [2]): 41200 M⁻¹ s⁻¹
Kd (human full-length VWF [3]): < 1 nM

B5: 4-H3_H5_L1 (antibody, human IgG1, kappa)
heavy: not shown
light: DYQMTQSPSSLSASVGDRVTITCLASEDIASGISWYQQKPGKAPKLLIYGASNLESGVPSRFSGSGSGTDYTLTISSLQPEDFATYYCLGGYSFSSNGLTFGGGTKVEIKTVAAPSVFIFPPSDEQLKSGTASVVCLLNNFYPREAKVQWKVDNALQSGNSQESVTEQDSKDSTYSLSSTLTLSKADYEKHKVYACEVTHQGLSSPVTKSFNRGEC
notes: humanised, human IgG1 kappa
Kd (human full-length VWF [2]): 0.575 pM
koff (human full-length VWF [2]): 5.95e-08 s⁻¹
kon (human full-length VWF [2]): 103000 M⁻¹ s⁻¹
Kd (human full-length VWF [3]): < 1 nM

B6: 4-H3_H1_L0 (antibody, human IgG1, kappa)
heavy: not shown
light: DIQMTQSPSSLSASVGDRVTITCLASEDIASGISWYQQKPGKAPKLLIYGASNLESGVPSRFSGSGSGTDFTLTISSLQPEDFATYYCLGGYSFSSNGLTFGGGTKVEIKTVAAPSVFIFPPSDEQLKSGTASVVCLLNNFYPREAKVQWKVDNALQSGNSQESVTEQDSKDSTYSLSSTLTLSKADYEKHKVYACEVTHQGLSSPVTKSFNRGEC
notes: humanised, human IgG1 kappa
Kd (human full-length VWF [4]): 18.7 pM
koff (human full-length VWF [4]): 2.49e-06 s⁻¹
kon (human full-length VWF [4]): 134000 M⁻¹ s⁻¹
Kd (human full-length VWF [3]): < 1 nM

B7: 4-H3_H1_L1 (antibody, human IgG1, kappa)
heavy: not shown
light: DYQMTQSPSSLSASVGDRVTITCLASEDIASGISWYQQKPGKAPKLLIYGASNLESGVPSRFSGSGSGTDYTLTISSLQPEDFATYYCLGGYSFSSNGLTFGGGTKVEIKTVAAPSVFIFPPSDEQLKSGTASVVCLLNNFYPREAKVQWKVDNALQSGNSQESVTEQDSKDSTYSLSSTLTLSKADYEKHKVYACEVTHQGLSSPVTKSFNRGEC
notes: humanised, human IgG1 kappa
Kd (human full-length VWF [4]): 13.8 pM
koff (human full-length VWF [4]): 4.27e-07 s⁻¹
kon (human full-length VWF [4]): 31000 M⁻¹ s⁻¹
Kd (human full-length VWF [3]): < 1 nM

B8: 4-H3_H5_L0 (antibody, human IgG1, kappa)
heavy: not shown
light: DIQMTQSPSSLSASVGDRVTITCLASEDIASGISWYQQKPGKAPKLLIYGASNLESGVPSRFSGSGSGTDFTLTISSLQPEDFATYYCLGGYSFSSNGLTFGGGTKVEIKTVAAPSVFIFPPSDEQLKSGTASVVCLLNNFYPREAKVQWKVDNALQSGNSQESVTEQDSKDSTYSLSSTLTLSKADYEKHKVYACEVTHQGLSSPVTKSFNRGEC
notes: humanised, human IgG1 kappa
Kd (human full-length VWF [2]): 0.366 pM
koff (human full-length VWF [2]): 4.93e-08 s⁻¹
kon (human full-length VWF [2]): 135000 M⁻¹ s⁻¹
Kd (human full-length VWF [3]): < 1 nM

B9: 4-H3_H3_L0 (antibody, human IgG1, kappa, V domains shown)
VH: QVQLVESGGGVVQPGRSLRLSCAASGIDLTSNAMNWVRQAPGKGLEWIGGIYGHDTSYYAAWAKGRFTISRDNSKNTVYLQMNSLRAEDTAVYYCARGFIYFDIWGQGTLVTVSS
VL: DIQMTQSPSSLSASVGDRVTITCLASEDIASGISWYQQKPGKAPKLLIYGASNLESGVPSRFSGSGSGTDFTLTISSLQPEDFATYYCLGGYSFSSNGLTFGGGTKVEIKT
notes: humanised, human IgG1 kappa
Kd (human full-length VWF [4]): 1.92 pM
koff (human full-length VWF [4]): 1.45e-07 s⁻¹
kon (human full-length VWF [4]): 75600 M⁻¹ s⁻¹
Kd (human full-length VWF [3]): < 1 nM

B10: 4-H3_H7_L1 (antibody, human IgG1, kappa, V domains shown)
VH: QVQLVESGGGVVQPGRSLRLSCAASGIDLTSNAMNWVRQAPGKGLEWIGGIYGHDTSYYAAWAKGRFTISRDNSKNTVYLQMNSLRAEDTATYFCARGFIYFDIWGQGTLVTVSS
VL: DYQMTQSPSSLSASVGDRVTITCLASEDIASGISWYQQKPGKAPKLLIYGASNLESGVPSRFSGSGSGTDYTLTISSLQPEDFATYYCLGGYSFSSNGLTFGGGTKVEIKT
notes: humanised, human IgG1 kappa
Kd (human full-length VWF [2]): 5.84 pM
koff (human full-length VWF [2]): 3.82e-07 s⁻¹
kon (human full-length VWF [2]): 65400 M⁻¹ s⁻¹
Kd (human full-length VWF [3]): < 1 nM

B11: 4-H3_H4_L0 (antibody, human IgG1, kappa, V domains shown)
VH: QVQLVESGGGVVQPGRSLRLSCAASGIDLTSNAMNWVRQAPGKGLEWVAGIYGHDTSYYAAWAKGRFTISRDNSKNTLYLQMNSLRAEDTATYFCARGFIYFDIWGQGTLVTVSS
VL: DIQMTQSPSSLSASVGDRVTITCLASEDIASGISWYQQKPGKAPKLLIYGASNLESGVPSRFSGSGSGTDFTLTISSLQPEDFATYYCLGGYSFSSNGLTFGGGTKVEIKT
notes: humanised, human IgG1 kappa
Kd (human full-length VWF [4]): 19.3 pM
koff (human full-length VWF [4]): 5.24e-07 s⁻¹
kon (human full-length VWF [4]): 27100 M⁻¹ s⁻¹
Kd (human full-length VWF [3]): < 1 nM

B12: 4-H3_H3_L1 (antibody, human IgG1, kappa, V domains shown)
VH: QVQLVESGGGVVQPGRSLRLSCAASGIDLTSNAMNWVRQAPGKGLEWIGGIYGHDTSYYAAWAKGRFTISRDNSKNTVYLQMNSLRAEDTAVYYCARGFIYFDIWGQGTLVTVSS
VL: DYQMTQSPSSLSASVGDRVTITCLASEDIASGISWYQQKPGKAPKLLIYGASNLESGVPSRFSGSGSGTDYTLTISSLQPEDFATYYCLGGYSFSSNGLTFGGGTKVEIKT
notes: humanised, human IgG1 kappa
Kd (human full-length VWF [4]): 1.49 pM
koff (human full-length VWF [4]): 1.72e-07 s⁻¹
kon (human full-length VWF [4]): 115000 M⁻¹ s⁻¹
Kd (human full-length VWF [3]): < 1 nM

B13: 4-H3_H6_L1 (antibody, human IgG1, kappa)
heavy: not shown
light: DYQMTQSPSSLSASVGDRVTITCLASEDIASGISWYQQKPGKAPKLLIYGASNLESGVPSRFSGSGSGTDYTLTISSLQPEDFATYYCLGGYSFSSNGLTFGGGTKVEIKTVAAPSVFIFPPSDEQLKSGTASVVCLLNNFYPREAKVQWKVDNALQSGNSQESVTEQDSKDSTYSLSSTLTLSKADYEKHKVYACEVTHQGLSSPVTKSFNRGEC
notes: humanised, human IgG1 kappa
Kd (human full-length VWF [2]): 1.73 pM
koff (human full-length VWF [2]): 1.14e-07 s⁻¹
kon (human full-length VWF [2]): 65700 M⁻¹ s⁻¹
Kd (human full-length VWF [3]): < 1 nM

B14: 4-H3_H7_L0 rep (antibody, human IgG1, kappa, V domains shown)
VH: QVQLVESGGGVVQPGRSLRLSCAASGIDLTSNAMNWVRQAPGKGLEWIGGIYGHDTSYYAAWAKGRFTISRDNSKNTVYLQMNSLRAEDTATYFCARGFIYFDIWGQGTLVTVSS
VL: DIQMTQSPSSLSASVGDRVTITCLASEDIASGISWYQQKPGKAPKLLIYGASNLESGVPSRFSGSGSGTDFTLTISSLQPEDFATYYCLGGYSFSSNGLTFGGGTKVEIKT
notes: humanised, human IgG1 kappa
Kd (human full-length VWF [2]): 1.61 pM
koff (human full-length VWF [2]): 1.73e-07 s⁻¹
kon (human full-length VWF [2]): 108000 M⁻¹ s⁻¹
Kd (human full-length VWF [3]): < 1 nM

B15: 4-H3_H0_L1 rep (antibody, human IgG1, kappa, V domains shown)
VH: QVQLVESGGGVVQPGRSLRLSCAASGFTFSSNAMNWVRQAPGKGLEWVAGIYGHDTSYYAAWAKGRFTISRDNSKNTLYLQMNSLRAEDTAVYYCARGFIYFDIWGQGTLVTVSS
VL: DYQMTQSPSSLSASVGDRVTITCLASEDIASGISWYQQKPGKAPKLLIYGASNLESGVPSRFSGSGSGTDYTLTISSLQPEDFATYYCLGGYSFSSNGLTFGGGTKVEIKT
notes: humanised, human IgG1 kappa
Kd (human full-length VWF [4]): 4.12 pM
koff (human full-length VWF [4]): 1.52e-07 s⁻¹
kon (human full-length VWF [4]): 36900 M⁻¹ s⁻¹
Kd (human full-length VWF [3]): < 1 nM

B16: 4-H3_H0_L0 (antibody, human IgG1, kappa, V domains shown)
VH: QVQLVESGGGVVQPGRSLRLSCAASGFTFSSNAMNWVRQAPGKGLEWVAGIYGHDTSYYAAWAKGRFTISRDNSKNTLYLQMNSLRAEDTAVYYCARGFIYFDIWGQGTLVTVSS
VL: DIQMTQSPSSLSASVGDRVTITCLASEDIASGISWYQQKPGKAPKLLIYGASNLESGVPSRFSGSGSGTDFTLTISSLQPEDFATYYCLGGYSFSSNGLTFGGGTKVEIKT
notes: humanised, human IgG1 kappa
Kd (human full-length VWF [3]): < 1 nM

B17: 1-G5_VH-par_L0 (antibody, human IgG1, kappa)
heavy chain: not shown
light chain: DIQMTQSPSSLSASVGDRVTITCQASQSVYNNNYLSWYQQKPGKAPKLLIYDASTLASGVPSRFSGSGSGTDFTLTISSLQPEDFATYYCQGSYYSGGWDTAFGGGTKVEIKTVAAPSVFIFPPSDEQLKSGTASVVCLLNNFYPREAKVQWKVDNALQSGNSQESVTEQDSKDSTYSLSSTLTLSKADYEKHKVYACEVTHQGLSSPVTKSFNRGEC
notes: also called 1-G5_L0 (hIgG1K)
Kd (human full-length VWF [1]): 3.58 pM
koff (human full-length VWF [1]): 3.8e-07 s⁻¹
kon (human full-length VWF [1]): 106000 M⁻¹ s⁻¹

B18: 1-G5_H1_L0 (antibody, human IgG1, kappa)
heavy: not shown
light: DIQMTQSPSSLSASVGDRVTITCQASQSVYNNNYLSWYQQKPGKAPKLLIYDASTLASGVPSRFSGSGSGTDFTLTISSLQPEDFATYYCQGSYYSGGWDTAFGGGTKVEIKTVAAPSVFIFPPSDEQLKSGTASVVCLLNNFYPREAKVQWKVDNALQSGNSQESVTEQDSKDSTYSLSSTLTLSKADYEKHKVYACEVTHQGLSSPVTKSFNRGEC
notes: humanised, human IgG1 kappa
Kd (human full-length VWF [3]): < 1 nM

From patent US20240228660A1 (IP2IPO INNOVATIONS, published 2024)
